Assay results taken from patent publication US7985736B2, “High throughput screen utilizing newly discovered intramolecular neuronal calcium channel interactions to discover new analgesics” (The John Hopkins University, priority 2004, dated 2011).
Ends that are not written are not given here.

Columns and labels:
I-IIB-YFP = biological target: T1, I-IIB-YFP (Homo sapiens, UniProt Q00975); experiment: Live-cell FRET two-hybrid assay versus I-IIB-YFP in HEK293 cells; format: binding; details: for Kd,EFF / affinity for I-IIB (FRET), in words: relative dissociation constant, HEK293 cells; for FRmax: 1:1 binding-model fit, CFP-tagged peptide versus I-IIB-YFP
T1 construct: I-IIB residues, 357-482; expressed in transfected cells; host or cells: HEK293
T1 sequence (Q00975 357-482): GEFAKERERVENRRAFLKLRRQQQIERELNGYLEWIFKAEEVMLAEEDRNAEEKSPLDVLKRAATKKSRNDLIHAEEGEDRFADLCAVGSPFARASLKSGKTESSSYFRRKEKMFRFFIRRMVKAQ
Text: To confirm preferential interaction of NTB with I-IIB a live-cell FRET two-hybrid assay was used (Erickson et al., 2003), in which NTB, NTC, I-IIB, and I-IIC were fused to either CFP or YFP, and the resulting fusion constructs expressed pair-wise in mammalian HEK293 cells. Given a Forster distance of ˜50 Å for the CFP/YFP pair (Patterson et al., 2000), the presence of FRET in individual cells would give a strong indication of interpeptide binding in the mammalian intracellular milieu. This indication is generally characterized by a low false-positive rate (Erickson et al., 2003), so that FRET assays provide a useful complement to yeast two-hybrid assays (Allen et al., 1995). […] SCFP (the signal derived from an image obtained with the CFP filter cube) is selective for CFP fluorescence and thereby gives an optical measure of NTB-CFP expression. Analogously, the SYFP signal, derived from preferential excitation and detection of YFP, estimates I-IIB-YFP levels. Finally, the SFRET signal reflects I-IIB-YFP fluorescence stimulated by FRET transfer from NTB-CFP, as well as secondary cross-talk signals. These three signals can be incorporated within a three-cube FRET algorithm to determine the strength of FRET interaction (“FRET ratio,” FR), independently of cross-talk (Erickson et al., 2001). FR adopts a value of unity in the absence of FRET and grows linearly with increasing FRET efficiency (Erickson et al., 2003). FR values for many individual cells are plotted as circles in FIG. 2Eb, with numerous determinations clearly greater than unity. Alternatively, FR values specified by a YFP-photobleaching methodology were also elevated above unity (triangles) (Bastiaens and Jovin, 1996). […] Consistent with yeast two-hybrid assays, then, FRET assays confirmed a selective propensity for NTB and I-IIB segments to associate.
Human m2 muscarinic acetylcholine receptor (AF498916) was engineered to reduce desensitization (Pals-Rylaarsdam and Hosey, 1997). QuikChange (Stratagene, La Jolla, Calif.) introduced cluster mutations, yielding m2R: residues 286-290 (STSVS/AAAVA), residues 307-311 (TVSTS/AVAAA). For FRET assays, base templates were ECFP/EYFP-tagged calmodulin constructs in pcDNA3 (Invitrogen, Carlsbad, Calif.), as described (Erickson et al., 2001). PCR-amplified channel segments or G proteins were substituted for calmodulin via upstream EcoRI and downstream NheI sites, creating in-frame fusions with fluorophore (ECFP/EYFP C-terminal to test molecules). NTC residues, 1-53; I-IIB residues, 357-482; and I-IIC residues, 436-554.
Experiments were performed mostly as previously described (Erickson et al., 2001; Erickson et al., 2003). Briefly, the FRET Ratio (FR) is the fractional increase in YFP emission due to FRET. […] For donor-dequenching analysis, EEFF is calculated as EEFF=^1−CFPpre/CFPpost, where CFPpre and CFPpost are the CFP emissions before/after 3 min YFP photobleaching. FR is determined by FR=(EEFF/[EYFP/ECFP])+1, where EYFP/ECFP is ratio of YFP and CFP molar extinction coefficients through 440 nm excitation bandpass of FRET cube (0.0574). For binding model analysis, Kd,EFF is the effective dissociation constant, related to actual Kd via filter/microscope optical characteristics. […]
Experiments were performed as described previously for the most part (Erickson et al., 2001; Erickson et al., 2003). Specifically, for quantitative analysis, all fluorescence from single cells were isolated through a pinhole in the image plane, and detected by photo-multiplier tube. In all three-cube FRET experiments, CFP levels were below a threshold where spurious, concentration-dependent FRET became significant (Stratton et al., 2004). Similarly, for donor-dequenching experiments, YFP levels were below an analogous threshold. […]

I-II loop of α1B (I-IIB) = biological target: T2, I-II loop of α1B (I-IIB) (Homo sapiens, UniProt Q00975); experiment: Yeast two-hybrid assay, NT peptides versus I-IIB; format: binding; details: NT segment in pGBKT7, I-IIB in pGADT7
T2 construct: I-IIB(357-482)-pGADT7 & lam-pGBKT7; expressed in transfected cells; host or cells: AH109 yeast
T2 sequence (Q00975 357-482): as above
Text: (§1) For yeast two-hybrid assays, a PCR fragment encoding one partner was fused, in-frame, with the GAL4 DNA binding domain (BD) in pGBKT7 (Clontech, Palo Alto, Calif.). The other element was fused, in-frame, with the GAL4 activation domain (AD) in pGADT7. For specific residues, see Supplemental Data (section 2). For electrophysiology, NT peptides lacking fluorophore tag were PCR amplified and cloned in pcDNA3. NTB peptide residues, 1-95; NTC residues, […]. Throughout, all segments subject to PCR or QuikChange were verified in their entirety by sequencing.
(§2) The Matchmaker GAL4 Two-Hybrid System 3 was used (Clontech, Palo Alto, Calif.). AH109 yeast were transformed with pGBKT7/pGADT7-based constructs (Yeastmaker Yeast Transformation System 2 kit, Clontech). After 5-8 days, growth on -leucine/-trytophan plates confirmed transformation of both plasmids. If partners interact, GAL4 BD/AD would complex, activating reporter genes (HIS3, ADE2, lacZ, and MEL1), for which assays are detailed in the Supplemental Data (section 2.1).
(§3) As a ‘medium’ stringency assay, expression of the lacZ gene was tested for encoding β-galactosidase, performing a filter lift with application of blue chromogenic substrate (Clontech-Laboratories, 1999). After the filter lift, original plates were re-grown for 2-3 days at 30° C. Filter paper was then used to replicate colonies onto a high stringency plate (-adenine/-histidine/-leucine/-trytophan). These plates were then incubated at 30° C. for 5-8 days. Survival on high stringency plates indicates production of both adenine and histidine, from transcription of the ADE2 and HIS3 genes, respectively. The percentage of colonies that turned blue in the filter lift assay, along with the percentage of colonies that survived on high stringency plates, was recorded for each pairing. Experiments were repeated at least three times. False positives were controlled for by testing each segment in pGBKT7 against empty pGADT7, and each segment in pGADT7 against lamin C in pGBKT7 (lamin C interacts with few proteins). Average sum of these backgrounds was subtracted from B to produce the net interaction parameter ΔB (FIG. 2).

[1] = biological target: T3, N-type (α1B) Ca2+ channels (Homo sapiens, UniProt Q00975); experiment: Whole-cell G/Q analysis and prepulse facilitation of recombinant N-type channels coexpressed with peptide in HEK293 cells; format: cell-based; details: for Effect on G/Q slope (Gmax-Qmax relation), with Gβγ: peptide coexpressed with channels and Gβγ, Gmax after 100 mV prepulse
T3 construct: transferred by EcoRI and Bgl II sites into the full-length α1B construct; expressed in transfected cells; host or cells: HEK293
T3 sequence (Q00975 whole entry, other chains not shown): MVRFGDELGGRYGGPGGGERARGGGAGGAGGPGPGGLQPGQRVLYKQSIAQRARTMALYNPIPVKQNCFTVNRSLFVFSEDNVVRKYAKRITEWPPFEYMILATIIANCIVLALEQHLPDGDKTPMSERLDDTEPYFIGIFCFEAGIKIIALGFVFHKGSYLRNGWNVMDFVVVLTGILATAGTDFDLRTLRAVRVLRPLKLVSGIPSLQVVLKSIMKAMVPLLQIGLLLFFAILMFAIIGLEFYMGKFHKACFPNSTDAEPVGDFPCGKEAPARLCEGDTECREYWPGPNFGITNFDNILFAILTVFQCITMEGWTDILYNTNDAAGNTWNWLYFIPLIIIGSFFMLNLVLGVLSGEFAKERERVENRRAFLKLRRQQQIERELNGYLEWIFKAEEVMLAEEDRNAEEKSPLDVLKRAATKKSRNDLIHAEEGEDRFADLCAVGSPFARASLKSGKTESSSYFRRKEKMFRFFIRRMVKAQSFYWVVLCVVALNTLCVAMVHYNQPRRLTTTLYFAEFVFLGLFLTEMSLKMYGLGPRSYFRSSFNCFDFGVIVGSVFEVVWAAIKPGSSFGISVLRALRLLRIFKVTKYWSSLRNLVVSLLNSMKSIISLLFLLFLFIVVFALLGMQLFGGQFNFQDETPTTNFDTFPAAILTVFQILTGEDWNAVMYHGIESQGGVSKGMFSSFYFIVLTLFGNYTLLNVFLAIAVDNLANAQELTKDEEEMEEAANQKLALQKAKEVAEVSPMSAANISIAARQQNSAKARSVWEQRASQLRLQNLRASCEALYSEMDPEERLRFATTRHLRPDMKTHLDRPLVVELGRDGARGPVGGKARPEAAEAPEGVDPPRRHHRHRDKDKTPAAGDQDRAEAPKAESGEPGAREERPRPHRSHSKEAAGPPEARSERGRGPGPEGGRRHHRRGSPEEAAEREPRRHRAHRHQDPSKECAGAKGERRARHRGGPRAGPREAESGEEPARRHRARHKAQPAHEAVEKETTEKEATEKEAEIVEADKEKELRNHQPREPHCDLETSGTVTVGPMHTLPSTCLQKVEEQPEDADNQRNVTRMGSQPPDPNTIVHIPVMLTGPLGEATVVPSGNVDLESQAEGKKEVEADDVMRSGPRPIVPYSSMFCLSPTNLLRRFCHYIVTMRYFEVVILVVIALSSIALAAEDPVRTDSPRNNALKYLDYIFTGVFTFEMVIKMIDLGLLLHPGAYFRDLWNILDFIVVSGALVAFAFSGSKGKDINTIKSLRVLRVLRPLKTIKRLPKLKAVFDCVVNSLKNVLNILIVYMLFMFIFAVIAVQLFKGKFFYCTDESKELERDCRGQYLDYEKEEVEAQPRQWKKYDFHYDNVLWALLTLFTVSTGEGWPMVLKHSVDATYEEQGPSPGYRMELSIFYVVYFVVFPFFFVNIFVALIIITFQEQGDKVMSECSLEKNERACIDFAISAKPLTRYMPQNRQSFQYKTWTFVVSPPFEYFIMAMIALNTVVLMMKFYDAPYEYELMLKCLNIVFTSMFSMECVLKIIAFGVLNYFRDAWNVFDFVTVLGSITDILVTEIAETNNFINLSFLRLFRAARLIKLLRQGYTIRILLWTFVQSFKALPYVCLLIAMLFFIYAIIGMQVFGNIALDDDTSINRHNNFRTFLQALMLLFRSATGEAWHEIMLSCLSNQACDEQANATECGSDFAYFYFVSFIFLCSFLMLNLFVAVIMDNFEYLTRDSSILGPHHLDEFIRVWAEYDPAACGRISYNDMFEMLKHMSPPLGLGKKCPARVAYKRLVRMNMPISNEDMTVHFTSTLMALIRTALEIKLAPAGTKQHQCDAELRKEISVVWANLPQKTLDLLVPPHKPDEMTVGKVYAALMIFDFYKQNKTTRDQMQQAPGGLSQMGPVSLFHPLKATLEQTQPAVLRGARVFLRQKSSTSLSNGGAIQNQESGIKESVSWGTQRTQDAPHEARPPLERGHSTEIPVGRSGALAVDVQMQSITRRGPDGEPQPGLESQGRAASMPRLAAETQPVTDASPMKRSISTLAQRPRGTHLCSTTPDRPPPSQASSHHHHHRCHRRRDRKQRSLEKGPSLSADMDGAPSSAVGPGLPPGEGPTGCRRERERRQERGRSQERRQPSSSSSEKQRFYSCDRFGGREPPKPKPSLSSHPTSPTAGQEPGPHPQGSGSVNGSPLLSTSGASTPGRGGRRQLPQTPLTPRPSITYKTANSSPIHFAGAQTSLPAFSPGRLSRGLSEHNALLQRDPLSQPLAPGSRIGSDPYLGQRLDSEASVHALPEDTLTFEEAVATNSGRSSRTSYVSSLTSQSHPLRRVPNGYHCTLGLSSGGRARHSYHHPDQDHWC
T3 sequence (P54290 25-944 partner limits assumed, other chains not shown): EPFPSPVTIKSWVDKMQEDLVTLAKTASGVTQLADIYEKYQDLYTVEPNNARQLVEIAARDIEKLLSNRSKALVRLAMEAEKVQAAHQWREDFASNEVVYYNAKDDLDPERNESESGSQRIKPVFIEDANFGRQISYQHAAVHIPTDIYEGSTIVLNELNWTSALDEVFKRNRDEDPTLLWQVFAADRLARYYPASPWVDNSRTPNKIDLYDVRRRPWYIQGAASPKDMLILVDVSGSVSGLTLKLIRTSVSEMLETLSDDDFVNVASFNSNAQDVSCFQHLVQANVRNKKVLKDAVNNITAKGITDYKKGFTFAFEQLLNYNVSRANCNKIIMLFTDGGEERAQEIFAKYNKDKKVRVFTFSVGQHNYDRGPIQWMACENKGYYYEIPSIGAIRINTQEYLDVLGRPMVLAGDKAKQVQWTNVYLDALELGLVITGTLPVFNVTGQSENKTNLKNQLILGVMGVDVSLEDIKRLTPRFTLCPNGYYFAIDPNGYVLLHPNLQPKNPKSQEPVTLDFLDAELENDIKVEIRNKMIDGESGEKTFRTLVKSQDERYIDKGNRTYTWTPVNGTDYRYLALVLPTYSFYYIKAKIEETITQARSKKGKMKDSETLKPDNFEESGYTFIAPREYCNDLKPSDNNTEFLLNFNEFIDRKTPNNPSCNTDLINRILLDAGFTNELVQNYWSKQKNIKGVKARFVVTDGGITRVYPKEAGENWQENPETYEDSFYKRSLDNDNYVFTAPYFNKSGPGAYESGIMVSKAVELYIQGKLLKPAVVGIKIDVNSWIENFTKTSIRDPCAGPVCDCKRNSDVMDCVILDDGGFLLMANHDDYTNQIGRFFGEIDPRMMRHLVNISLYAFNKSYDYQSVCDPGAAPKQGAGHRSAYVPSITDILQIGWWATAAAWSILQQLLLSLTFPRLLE
T3 sequence (P54290 945-1091 partner limits assumed, other chains not shown): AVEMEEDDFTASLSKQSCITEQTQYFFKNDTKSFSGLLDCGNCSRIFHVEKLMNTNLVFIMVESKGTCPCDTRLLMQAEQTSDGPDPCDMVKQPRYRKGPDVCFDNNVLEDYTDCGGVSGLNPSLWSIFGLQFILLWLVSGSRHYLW
Text: FIG. 3A illustrates an approach for N-type channels without Gβγ coexpression. Exemplar currents activated quickly and were barely facilitated by strong prepulse depolarization (FIG. 3A, left). The slight residual prepulse facilitation reflects basal endogenous Gβγ activation. To estimate open probability, two intermediary parameters were specified. First, to gauge the number of channels in a cell (Nchannel), the channel gating current at the reversal potential for ionic current were isolated (FIG. 3A, middle left) (Jones et al., 1999). The area under this current yields the maximal gating charge Qmax, where Qmax=Nchannel×qmax, and qmax is the maximal gating charge per channel. Second, Gmax for a given cell, the maximal ionic current conductance determined as the slope of the peak current-voltage relation at depolarized potentials were determined (FIG. 3A, middle right, line). Here and throughout, current-voltage relations were determined after a 100 mV prepulse, which transiently relieves all G protein inhibition (Colecraft et al., 2000), thus eliminating these inhibitory effects in the estimate of Gmax. Accordingly, Gmax=Nchannel×Po,max×g, where Po,max is the maximal channel open probability at saturating de-polarization, and g is the conductance of a single open channel. In combination, then, a plot of Gmax versus Qmax for multiple cells ([…]) would describe a linear relation with slope equal to Po,max×g/qmax. Because g and qmax are unchanged by G protein modulation (Colecraft et al., 2001; Jones et al., 1997; Patil et al., 1996), this slope (G/Q=0.44±0.03 nS/fC) is proportional to Po,max . . . FIG. 3B documents the supporting results for N-type channels coexpressed with Gβγ. Gmax determined after prepulse de-polarization, when plotted against Qmax, specifies an identical slope to that without Gβγ (FIG. 3B, right, G/Q=0.43±0.04 nS/fC). […] Free NTB peptide with α1B channels. Initially, an NTB-CFP peptide was employed to visually confirm expression was coexpressed. […] By contrast, coexpressing channels with NTB-CFP and Gβγ produced remarkable effects (FIG. 3D). […] More telling were small ionic current amplitudes despite gating current magnitudes on par with controls (FIG. 3D, middle panels). Consequently, there was a significant ^w6-fold depression of the Gmax-Qmax plot (FIG. 3D, right). If NTB-CFP were simply chelating Gβγ (FIG. 2C), the G/Q slope would be unchanged from control. Instead, the suppression of G/Q indicates constitutive inhibition of channel opening.
Cells were transiently transfected and cultured in 10 cm plates (Brody et al., 1997). For 2+Ca^2+ channels, 8 μg was used of each of cDNAs of the desired a1, rat brain β2a (Perez-Reyes et al., 1992), and rat brain a^28 (Tomlinson et al., 1993) subunits; along with 2 μg T-antigen cDNA. N-type α1B, human origin (NM000718); L-type α1C, rabbit (Wei et al., 1991) (X15539). Gβγ coexpressed with 4 μg each of Gβ1 (Sugimoto et al., 1985) and Gγ2 (Gautam et al., 1990). For coexpression of N-terminal peptides, channel subunit cDNA reduced to 6 μg, while adding 14 μg peptide cDNA. For receptor experiments, 0.5 μg cDNA for m2R (below) applied with other cDNAs.
Whole-cell current records were made with Axopatch 200B (Axon Instruments, Calif.), 1-3 days posttransfection. Pipets, 1.5-3 MΩ before 60-75% series resistance compensation. Internal solution: 135 mM CsMeSO4, 5 mM CsCl, 10 mM EGTA, 10 mM HEPES, 1 mM MgCl2, and 4 mM MgATP. External solution: 150 mM TEAMeSO4, 10 mM HEPES, 2 mM CaCl2, and 1 mM MgCl2. During constitutive inhibition (or as noted for some chimeras), 20 mM BaCl2 was substituted for 2 mM CaCl2, and the resulting solution was diluted 1.08×. To compare across external solutions, a conversion factor of 3.18 was used. Currents and conductances with 20 mM Ba^2+ were thus scaled×1/3.18 to facilitate uniform comparison of values, as if all data had been collected with 2 mM Ca^2+. When applied, conversion is denoted by asterisk (*). […]

Gβ1 = biological target: T4, Gβ1 (Bos taurus, UniProt P62871); experiment: Yeast two-hybrid assay, channel fragments versus Gβ1; format: binding; details: Gβ1 in pGADT7, channel fragment in pGBKT7
T4 construct: expressed in transfected cells; host or cells: AH109 yeast
T4 sequence (P62871 whole entry, the tested form may be a part): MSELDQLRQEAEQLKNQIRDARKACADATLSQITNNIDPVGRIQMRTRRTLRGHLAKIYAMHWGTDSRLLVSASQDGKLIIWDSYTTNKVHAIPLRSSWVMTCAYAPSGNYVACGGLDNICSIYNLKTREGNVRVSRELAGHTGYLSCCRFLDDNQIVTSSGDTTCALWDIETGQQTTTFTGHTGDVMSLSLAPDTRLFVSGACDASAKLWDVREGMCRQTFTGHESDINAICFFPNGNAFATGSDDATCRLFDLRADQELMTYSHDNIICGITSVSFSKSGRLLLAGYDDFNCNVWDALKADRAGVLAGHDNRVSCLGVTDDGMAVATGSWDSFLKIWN
Text: as §1, §2
as §3, with “Average sum of these backgrounds was subtracted from B to produce the net interaction parameter ΔB (FIG. 2).” left out

## NTB (1-44)—CFP: NTB (1-44) fused to CFP (MVRFGDELGGRYGGPGGGERARGGGAGGAGGPGPGGLQPGQRVL; also: fused to CFP)
I-IIB-YFP
  Kd,EFF / affinity for I-IIB (FRET), in words: no detectable association

## NTB (45-95): NTB subdomain, residues 45-95 (SEQ ID NO.: 2) (KQSIAQRARTMALYNPIPVKQNCFTVNRSLFVFSEDNVVRKYAKRITEWP; listed as Homo sapiens)
I-II loop of α1B (I-IIB)
  Interaction with I-IIB (yeast two-hybrid, ΔB): Robust ΔB values
[1]
  Effect on G/Q slope (Gmax-Qmax relation), with Gβγ: depressed Gmax-Qmax relations to the same extent as did full NTB

## NTB (56-95)—CFP: NTB (56-95) fused to CFP (MALYNPIPVKQNCFTVNRSLFVFSEDNVVRKYAKRITEWP; also: fused to CFP)
I-IIB-YFP
  FRmax: 2.44
  Kd,EFF / affinity for I-IIB (FRET), in words: affinity equivalent to that of full NTB

B1: NTB [1-55]: residues 1-55 of NTB (protein)
chain: MKLLSSIEQACDICRLKKLKCSKEKPKCAKCLKNNWECRYSPKTKRSPLTRAHLTEVESRLERLEQLFLLIFPREDLDMILKMDSLQDIKALLTGLFVQDNVNKDAVTDRLASVETDMPLTLRQHRISATSSSEESSNKGQRQLTVSMVRFGDELGGRYGGPGGGERARGGGAGGAGGPGPGGLQPGQRVLYKQSIAQRART
Gβ1
  Interaction with Gβ1 (yeast two-hybrid): interacted with Gβ1

B2: NTB-CFP: NTB peptide fused to CFP (protein)
chain: MVRFGDELGGRYGGPGGGERARGGGAGGAGGPGPGGLQPGQRVLYKQSIAQRARTMALYNPIPVKQNCFTVNRSLFVFSEDNVVRKYAKRITEWP
modifications: left off: large carriers
I-IIB-YFP
  FRmax: 3.66
  Kd,EFF / affinity for I-IIB (FRET), in words: comparable to that for an apoCaM/IQ segment interaction
[1]; peptide coexpressed with channels, absent Gβγ
  Effect on G/Q slope and currents, without Gβγ: no differences from control

B3: NTB (Δ45-55): NTB peptide lacking residues 45-55 (protein)
chain: MVRFGDELGGRYGGPGGGERARGGGAGGAGGPGPGGLQPGQRVLMALYNPIPVKQNCFTVNRSLFVFSEDNVVRKYAKRITEWP
modifications: left off: small tags and cut ends
I-II loop of α1B (I-IIB)
  Interaction with I-IIB (yeast two-hybrid, ΔB): partially attenuated association
[1]
  Effect on G/Q slope (Gmax-Qmax relation), with Gβγ: inter-mediate inhibition
